Data taken from patent publication US20060148016A1.

Biological target: Alexa Fluor 594 labelled calmodulin (Molecular Probes)
Test: gel filtration assay (Example 3): Alexa Fluor 594 labelled calmodulin eluting with the particles; reference is ferritin particles without binding molecule

fold signal as compared to particles produced with pET-26(+)rHuLFt: 4.1 fold
Substance: Ferritin based particles expressing cbp on their surface (CBP-Human ferritin light chain fusion protein, plasmid pCBPHFI) (from UniProt P02792 2-175) (peptide)
